The results in this text go back to patent US20130171217A1, “ENZYMATIC PERACID GENERATION FOR USE IN SKIN CARE PRODUCTS” (E I DU PONT DE NEMOURS AND COMPANY, priority 2010, published 2013).

Data set [1] can be described thus: PAA generation with different perhydrolases and substrates, HPLC Karst assay. The format is biochemical. As for the experimental part: HC1121 is a CE-7 class carbohydrate esterase from Thermotoga maritima (C2775-HC263; SEQ ID NO: 288), and HC1169 is an aryl esterase from M. smegmatis (ArE-HC263; SEQ ID NO: 323). Both enzymes were tested for their perhydrolytic activity with substrates triacetin or propylene glycol diacetate (PGDA, Aldrich 528072) and hydrogen peroxide between pH 5 and pH 7.2. Enzyme free reactions for some reaction conditions were run to determine the non-enzymatic generation of peracetic acid as well. At the end of reaction, the reaction was quenched by acidification 10 or 25 fold with 100 mM H3PO4. The quenched samples were filtered using a NANOSEP® MF centrifugal device (30K Molecular Weight Cutoff (MWCO), Pall Life Sciences, Ann Arbor, Mich., P/N OD030C35) by centrifugation for 6 min at 12,000 rpm. The filtrates were assayed by HPLC Karst assay in duplicates to determine the amount of peracetic acid (PAA) generated at those reaction conditions.

A short description of data set [2]: Perhydrolase activity of targeted hydrolases, ABTS assay. The class given is biochemical. Here is the method:
The ABTS assay was performed as follows: hair samples treated as described above were transferred to new 2-mL microcentrifuge tubes (Eppendorf Protein LoBind; Eppendorf North America, Hauppauge, N.Y.) To each tube was added 480 μL of PAH buffer ([…]), 14 μL of 39% hydrogen peroxide (Sigma 3410), and 6 μL triacetin (Sigma-Aldrich W200700). The perhydrolase reaction was allowed to proceed for 10 minutes at room temperature (˜22-25° C.). The reaction was stopped by diluting aliquots 10×, 100× and 1000× with 10 mM phosphoric acid. For detection 50 μL of 1 M acetic acid, 50 μL of 40 mg/mL potassium iodide, and 50 μL of 4 mM ABTS (2,2′-azino-bis(3-ethylbenzthiazoline-6-sulphonic acid; Sigma, St Louis, Mo.) were added to 50 μL of the above dilutions. Color was allowed to develop for 10 minutes and read in a spectrophotometer at 405 nm. Values from no-enzyme controls were subtracted to yield values attributable only to enzyme activity. A standard curve of OD 405 nm vs PAA concentration in ppm yielded a conversion factor of 8.75, such that an OD 405 nm of 1.0 corresponded to approximately 8.75 ppm PAA. This value was then multiplied by the appropriate dilution to arrive at the PAA concentration in the perhydrolase reaction.
The perhydrolase activity of the enzymes targeted to hair with a variety of targeting domains produced as described in Example 32 was measured with the ABTS assay.

Data set [3] is described as follows: Retention of perhydrolase on hair detected by hydrolase activity. The format is binding. The conditions noted are these: for Activity in the first TWEEN®-20 wash / Activity retained on hair after 4 TWEEN® 20 washes / Activity unbound: hydrolase activity; for Activity in the first TWEEN®-20 wash: 1% TWEEN®-20; for Activity retained on hair after 4 TWEEN® 20 washes: 4 washes 1% TWEEN®-20 and 2 buffer washes; for Activity unbound: ~20 mg hair, binding 30 min; for 100% activity (hydrolase activity added to the tube): tube containing ~20 mg of hair, not subjected to washes. As for the experimental part:
For hair binding experiments brown hair tresses (International Hair Importers and Products, Glensdale N.Y.) were used. The hair was washed with 2% SLES, rinsed extensively with deionized water and air dried.
Around 20 mg of 1 cm brown hair fragments was added in a 1.8-mL microfuge tube. Hydrolase assay buffer (1.2 mL) as added to the hair followed by the addition of the perhydrolase enzymes to the solution. The enzymes were allowed to bind the hair for 30 min with gentle agitation (24 rpm) on an Adams Nutator (model 1105, Becton Dickinson, Franklin Lakes, N.J.). No enzyme controls, with hair and without hair, were included in the binding experiment to account for non-enzymatic hydrolysis of the pNPA hydrolase reagent. After the binding step, a 1.0-mL aliquot of the binding buffer was transferred to a new tube to quantitate the amount of unbound enzyme. Additional binding buffer was removed and the hair fragments were washed 4 times with 1 mL of 1% TWEEN®-20 in hydrolase buffer, followed by 2 washes with 1 mL each in hydrolase buffer. The hair fragments were then resuspended in 1 mL of hydrolase assay and the hydrolase activity that remained bound to the hair was measured. The C277S (“PAH”) variant of Thermotoga maritima perhydrolase (SEQ ID NO: 293) was used as a control for an un-targeted perhydrolase.

The mark [4] stands for this setting: 10 μg/mL enzyme, 250 mM triacetin, 100 mM H2O2, 20% LUBRIDERM® in pH 7.2, 100 mM phosphate buffer, 60 min.

B1: SEQ ID NO: 323: S54V variant of the aryl esterase from Mycobacterium smegmatis fused to hair binding domain HC263 via a flexible linker (protein)
chain: MAKRILCFGDSLTWGWVPVEDGAPTERFAPDVRWTGVLAQQLGADFEVIEEGLVARTTNIDDPTDPRLNGASYLPSCLATHLPLDLVIIMLGTNDTKAYFRRTPLDIALGMSVLVTQVLTSAGGVGTTYPAPKVLVVSPPPLAPMPHPWFQLIFEGGEQKTTELARVYSALASFMKVPFFDAGSVISTDGVDGIHFTEANNRDLGVALAEQVRSLLGPGSGGAGSPGSAGGPGSPSAQSQLPDKHSGLHERAPQRYGPEPEPEPEPIPEPPKEAPVVIEKPKPKPKPKPKPPAHDHKNQKETHQRHAAGSGGGGSPHHHHHH
For the molecule B1, the PAA in data set [1] (10 μg/mL enzyme, 250 mM PGDA, 100 mM H2O2, pH 5, 100 mM citrate buffer, 30 min) came out at 4158 ppm; in data set [1] (10 μg/mL enzyme, 250 mM PGDA, 100 mM H2O2, pH 5.6, 100 mM citrate buffer, 30 min) it was 4482 ppm; in data set [1] (10 μg/mL enzyme, 250 mM PGDA, 100 mM H2O2, pH 6, 100 mM citrate buffer, 30 min) it was 4647 ppm; in data set [1] (10 μg/mL enzyme, 250 mM PGDA, 100 mM H2O2, pH 6.6, 100 mM phosphate buffer, 30 min), 4608 ppm; in data set [1] (10 μg/mL enzyme, 250 mM PGDA, 100 mM H2O2, pH 7.2, 100 mM phosphate buffer, 30 min), 4450 ppm; in data set [1] (setting [4]) it was 3433 ppm. The PAA came out at 4140 ppm in data set [1] (20 μg/mL enzyme, 250 mM PGDA, 100 mM H2O2, pH 5, 100 mM citrate buffer, 30 min); 4403 ppm in data set [1] (20 μg/mL enzyme, 250 mM PGDA, 100 mM H2O2, pH 5.6, 100 mM citrate buffer, 30 min); 4609 ppm in data set [1] (20 μg/mL enzyme, 250 mM PGDA, 100 mM H2O2, pH 6, 100 mM citrate buffer, 30 min); 4526 ppm in data set [1] (20 μg/mL enzyme, 250 mM PGDA, 100 mM H2O2, pH 6.6, 100 mM phosphate buffer, 30 min); 4726 ppm in data set [1] (20 μg/mL enzyme, 250 mM PGDA, 100 mM H2O2, pH 7.2, 100 mM phosphate buffer, 30 min); 3680 ppm in data set [1] (20 μg/mL enzyme, 250 mM triacetin, 100 mM H2O2, pH 5, 100 mM citrate buffer, 30 min). Moreover, the PAA in data set [1] (20 μg/mL enzyme, 250 mM triacetin, 100 mM H2O2, pH 5.6, 100 mM citrate buffer, 30 min) amounted to 4429 ppm; in data set [1] (20 μg/mL enzyme, 250 mM triacetin, 100 mM H2O2, pH 6, 100 mM citrate buffer, 30 min), 4616 ppm; in data set [1] (20 μg/mL enzyme, 250 mM triacetin, 100 mM H2O2, pH 6.6, 100 mM phosphate buffer, 30 min), 4488 ppm; in data set [1] (20 μg/mL enzyme, 250 mM triacetin, 100 mM H2O2, pH 7.2, 100 mM phosphate buffer, 30 min), 4812 ppm. This molecule registered a Specific perhydrolase activity in data set [2] (triacetin at pH 7.5) of 270 µmol/mg/min.

B2: C277S: non-targeted C277S variant of the Thermotoga maritima perhydrolase, un-targeted control (protein, listed as Thermotoga maritima)
chain: MAFFDLPLEELKKYRPERYEEKDFDEFWEETLAESEKFPLDPVFERMESHLKTVEAYDVTFSGYRGQRIKGWLLVPKLEEEKLPCVVQYIGYNGGRGFPHDWLFWPSMGYICFVMDTRGQGSGWLKGDTPDYPEGPVDPQYPGFMTRGILDPRTYYYRRVFTDAVRAVEAAASFPQVDQERIVIAGGSQGGGIALAVSALSKKAKALLCDVPFLCHFRRAVQLVDTHPYAEITNFLKTHRDKEEIVFRTLSYFDGVNFAARAKIPALFSVGLMDNISPPSTVFAAYNYYAGPKEIRIYPYNNHEGGGSFQAVEQVKFLKKLFEKG
As to B2, in data set [3], the “Activity in the first TWEEN®-20 wash” value is 5%, the “Activity retained on hair after 4 TWEEN® 20 washes” value is on record as 1%, the Activity unbound is on record as 103% and the “100% activity (hydrolase activity added to the tube)” value came to 148 µmol/min.

B3: C277S-HC263: C277S variant of Thermotoga maritima perhydrolase fused via a flexible linker to hair-binding domain HC263 (protein)
chain: MAFFDLPLEELKKYRPERYEEKDFDEFWEETLAESEKFPLDPVFERMESHLKTVEAYDVTFSGYRGQRIKGWLLVPKLEEEKLPCVVQYIGYNGGRGFPHDWLFWPSMGYICFVMDTRGQGSGWLKGDTPDYPEGPVDPQYPGFMTRGILDPRTYYYRRVFTDAVRAVEAAASFPQVDQERIVIAGGSQGGGIALAVSALSKKAKALLCDVPFLCHFRRAVQLVDTHPYAEITNFLKTHRDKEEIVFRTLSYFDGVNFAARAKIPALFSVGLMDNISPPSTVFAAYNYYAGPKEIRIYPYNNHEGGGSFQAVEQVKFLKKLFEKGGPGSGGAGSPGSAGGPGSPSAQSQLPDKHSGLHERAPQRYGPEPEPEPEPIPEPPKEAPVVIEKPKPKPKPKPKPPAHDHKNQKETHQRHAAGSGGGGSPHHHHHH
As for B3, the PAA in data set [1] (setting [4]) was determined as 4451 ppm; in data set [1] (50 μg/mL enzyme, 100 mM triacetin, 250 mM H2O2, pH 5, 50 mM citrate buffer, 5 min), 277 ppm; in data set [1] (50 μg/mL enzyme, 100 mM triacetin, 250 mM H2O2, pH 5.6, 50 mM citrate buffer, 5 min), 1222 ppm; in data set [1] (50 μg/mL enzyme, 100 mM triacetin, 250 mM H2O2, pH 6, 50 mM citrate buffer, 5 min), 2350 ppm; in data set [1] (50 μg/mL enzyme, 100 mM triacetin, 250 mM H2O2, pH 6.6, 50 mM citrate-phosphate buffer, 5 min), 4067 ppm; in data set [1] (50 μg/mL enzyme, 100 mM triacetin, 250 mM H2O2, pH 7, 50 mM pyrophosphate buffer, 5 min), 4832 ppm. Moreover, in data set [2] (1 m Na acetate at pH 5.5 instead of triacetin), the Specific perhydrolase activity result is given as “The perhydrolase activity of the fusions of the Pseudomonas fluorescens hydrolase was assayed using 1 m Na acetate at pH 5.5 instead of triacetin at pH 7.5 Targeted Perhydrolases HC1121 (C277S-HC263; SEQ ID NO: 288) had no detectable perhydrolase activity with acetate as a substrate”. Also, the “Activity in the first TWEEN®-20 wash” value in data set [3] is 9%. For the same molecule, the “Activity retained on hair after 4 TWEEN® 20 washes” value in data set [3] is 54%. Further, in data set [3], the Activity unbound was found to be 52%. The “100% activity (hydrolase activity added to the tube)” value in data set [3] stood at 53 µmol/min.
